The target of this test is rat PRL receptor (PRL-R) on trigeminal ganglia neurons (rat) (UniProt P05710). Briefly: cell-based or functional assay.
rat PRL receptor (PRL-R) on trigeminal ganglia neurons (rat), sequence (P05710 20-610): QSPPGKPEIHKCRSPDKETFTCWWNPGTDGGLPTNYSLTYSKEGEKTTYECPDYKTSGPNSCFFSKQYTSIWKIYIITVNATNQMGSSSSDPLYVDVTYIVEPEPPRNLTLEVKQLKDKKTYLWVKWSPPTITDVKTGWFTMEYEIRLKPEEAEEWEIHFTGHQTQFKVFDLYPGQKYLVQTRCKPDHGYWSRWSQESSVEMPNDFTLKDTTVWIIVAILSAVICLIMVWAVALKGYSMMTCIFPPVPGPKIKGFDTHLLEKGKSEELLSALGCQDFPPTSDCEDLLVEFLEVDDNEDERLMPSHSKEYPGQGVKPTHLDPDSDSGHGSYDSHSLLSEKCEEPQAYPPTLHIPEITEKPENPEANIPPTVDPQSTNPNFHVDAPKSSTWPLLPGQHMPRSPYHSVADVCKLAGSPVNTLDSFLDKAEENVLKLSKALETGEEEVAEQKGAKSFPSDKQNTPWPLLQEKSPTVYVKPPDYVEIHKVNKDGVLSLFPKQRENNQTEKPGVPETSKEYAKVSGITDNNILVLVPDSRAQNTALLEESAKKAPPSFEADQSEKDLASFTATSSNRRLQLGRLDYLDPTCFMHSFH

For the substance G129R-hPRL (ligand), the reduction of the PRL effect on Icap (G129R-PRL 16 nM with rPRL 4 nM) turned out to be 40%.
Turning to “Ovine PRL [oPRL-21, BIO] (from UniProt P01240 31-229) (ligand)”, the EC50 of sensitization of capsaicin-induced currents (Icap) in TG neurons from naive female rats worked out at 0.27 nM; the TRPV1 phosphorylation (32P incorporation) in TG neurons from intact female rats, PRL 40 nM for 10 min amounted to 150%; the capsaicin-evoked Ca2+ influx in TG neurons from intact female rats (PRL 40 nM, 10 min) was 71%.

(Values after patent US20070087966A1.)
